Laboratory results taken from patent publication US20250011363A1, “OPTIMIZED SHORTENED PEPTIDE THAT BINDS TO ACETYLCHOLINE RECEPTOR, AND USE THEREOF” (SKINMED CO., LTD., priority 2021, published 2025).

Molecular target: acetylcholine receptor (Homo sapiens, UniProt P02708)
Assay: SPR binding affinity (RU) of optimized 5mer/6mer/7mer peptides, Examples 6-7
Details: SPR, peptides tested at 10 μM; 6mer-1 Top sequence (top combinations)
Summary of the method: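 Response units from SPR give the binding values listed. Each synthesized peptide was run at 10 μM over the receptor.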

Chain of acetylcholine receptor (P02708 21-457): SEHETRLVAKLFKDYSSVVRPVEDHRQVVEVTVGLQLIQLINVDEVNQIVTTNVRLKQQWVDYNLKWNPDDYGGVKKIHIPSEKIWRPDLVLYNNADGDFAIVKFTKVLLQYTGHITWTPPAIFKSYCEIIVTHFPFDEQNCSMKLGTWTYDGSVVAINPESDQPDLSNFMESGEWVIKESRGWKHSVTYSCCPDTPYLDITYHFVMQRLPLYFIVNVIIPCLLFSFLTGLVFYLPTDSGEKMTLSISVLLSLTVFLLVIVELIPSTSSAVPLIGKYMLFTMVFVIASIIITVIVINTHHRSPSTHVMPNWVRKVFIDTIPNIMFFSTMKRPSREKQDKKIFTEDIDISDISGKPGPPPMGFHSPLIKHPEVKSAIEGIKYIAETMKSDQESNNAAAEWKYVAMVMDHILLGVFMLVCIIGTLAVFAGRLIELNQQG

Point of comparison: 6mer-1-63 (KKWVSR), Binding affinity 148 Ru. Against it:
- 6mer-1-1 (KKVISK) — lower, 122 Ru
- 6mer-1-2 (RKQILR) — lower, 142 Ru
- 6mer-1-3 (RKRRSR) — higher, 154 Ru
- 6mer-1-4 (RKSFYK) — lower, 139 Ru
- 6mer-1-5 (KRQIRK) — lower, 135 Ru
- 6mer-1-6 (RKSRCK) — higher, 153 Ru
- 6mer-1-7 (KRQYSK) — lower, 126 Ru
- 6mer-1-8 (RKRRRK) — lower, 125 Ru
- 6mer-1-9 (RKSFCK) — higher, 154 Ru
- 6mer-1-10 (KRWRLK) — lower, 139 Ru
- 6mer-1-11 (KRQFTK) — lower, 139 Ru
- 6mer-1-12 (KKQICK) — lower, 128 Ru
- 6mer-1-13 (KRQIQR) — lower, 147 Ru
- 6mer-1-14 (RKRFLK) — lower, 145 Ru
- 6mer-1-15 (KRQICK) — lower, 123 Ru
- 6mer-1-16 (KKQYCR) — lower, 136 Ru
- 6mer-1-17 (KRVQCR) — lower, 135 Ru
- 6mer-1-18 (KKQFTR) — lower, 145 Ru
- 6mer-1-19 (KRSFYR) — lower, 135 Ru
- 6mer-1-20 (KKSRYK) — lower, 147 Ru
- 6mer-1-21 (RKWYLK) — lower, 137 Ru
- 6mer-1-22 (RKRLCK) — lower, 126 Ru
- 6mer-1-23 (KRSVSR) — higher, 153 Ru
- 6mer-1-24 (RKVIRK) — lower, 142 Ru
- 6mer-1-25 (KKLIRR) — lower, 135 Ru
- 6mer-1-26 (KKRVLR) — lower, 123 Ru
- 6mer-1-27 (KRSFTK) — lower, 142 Ru
- 6mer-1-28 (RRWISK) — lower, 125 Ru
- 6mer-1-29 (KRLISR) — lower, 124 Ru
- 6mer-1-30 (RRQVRR) — higher, 154 Ru
- 6mer-1-31 (KRLYCR) — lower, 121 Ru
- 6mer-1-32 (RKGQCR) — lower, 121 Ru
- 6mer-1-33 (KKSYCR) — higher, 154 Ru
- 6mer-1-34 (RKWLYK) — lower, 135 Ru
- 6mer-1-35 (RRGRQR) — lower, 136 Ru
- 6mer-1-36 (RKWQQK) — lower, 124 Ru
- 6mer-1-37 (KKWVLR) — lower, 121 Ru
- 6mer-1-38 (RRQQTK) — lower, 126 Ru
- 6mer-1-39 (RKVYQK) — lower, 139 Ru
- 6mer-1-40 (KRSQYK) — lower, 121 Ru
- 6mer-1-41 (RKGITK) — lower, 122 Ru
- 6mer-1-42 (KKRIQR) — lower, 139 Ru
- 6mer-1-44 (KRQYCK) — the same, 148 Ru
- 6mer-1-45 (RKGLTK) — lower, 145 Ru
- 6mer-1-46 (KRLYQR) — lower, 142 Ru
- 6mer-1-47 (KRRLLK) — higher, 149 Ru
- 6mer-1-48 (RRWVRR) — lower, 124 Ru
- 6mer-1-49 (RRWQTR) — higher, 149 Ru
- 6mer-1-50 (KKVRTR) — lower, 139 Ru
- 6mer-1-51 (RRVLYK) — lower, 127 Ru
- 6mer-1-52 (RRRFLR) — lower, 131 Ru
- 6mer-1-53 (KRVIQR) — lower, 123 Ru
- 6mer-1-54 (RRRVCK) — lower, 144 Ru
- 6mer-1-55 (KRSIYR) — lower, 133 Ru
- 6mer-1-56 (RRGIQR) — lower, 137 Ru
- 6mer-1-57 (RKQYYK) — lower, 139 Ru
- 6mer-1-58 (RKSVTR) — lower, 126 Ru
- 6mer-1-59 (KRLQCK) — lower, 145 Ru
- 6mer-1-60 (RKSIQK) — lower, 139 Ru
- 6mer-1-61 (KRSYCK) — lower, 121 Ru
- 6mer-1-62 (RRWFTK) — lower, 133 Ru
- 6mer-1-64 (RKQFTK) — higher, 154 Ru
- 6mer-1-65 (KKSRRR) — lower, 121 Ru
- 6mer-1-66 (KKSISR) — lower, 147 Ru
- 6mer-1-67 (RRSYTR) — lower, 135 Ru
- 6mer-1-68 (RKLQLK) — higher, 153 Ru
- 6mer-1-69 (RKVRRR) — lower, 142 Ru
- 6mer-1-70 (KKLLYR) — lower, 139 Ru
- 6mer-1-71 (KRWFYK) — lower, 121 Ru
- 6mer-1-72 (RKVQLK) — lower, 139 Ru
- 6mer-1-73 (KKQQQR) — lower, 142 Ru
- 6mer-1-74 (KKVRLR) — lower, 142 Ru
- 6mer-1-75 (RRQYQK) — lower, 139 Ru
- 6mer-1-76 (RRLQLK) — lower, 126 Ru
- 6mer-1-77 (KKQLRR) — higher, 149 Ru
- 6mer-1-78 (KKRVSK) — lower, 145 Ru
- 6mer-1-79 (KRLFCK) — lower, 137 Ru
- 6mer-1-80 (KRVQQR) — lower, 133 Ru
- 6mer-1-81 (RRWQLR) — the same, 148 Ru
- 6mer-1-82 (KKVLYR) — lower, 123 Ru
- 6mer-1-83 (RRSFLR) — lower, 146 Ru
- 6mer-1-84 (RRGQTK) — lower, 142 Ru
- 6mer-1-85 (RKRQCK) — lower, 121 Ru
- 6mer-1-86 (KKWRQK) — lower, 142 Ru
- 6mer-1-87 (KKQVYK) — lower, 139 Ru
- 6mer-1-88 (KRWICK) — lower, 121 Ru
- 6mer-1-89 (RKQRCK) — lower, 142 Ru
- 6mer-1-90 (KKGISK) — lower, 125 Ru
- 6mer-1-91 (RKQQCK) — lower, 131 Ru
- 6mer-1-92 (RRWRLK) — higher, 153 Ru
- 6mer-1-93 (KRWIRR) — lower, 136 Ru
- 6mer-1-94 (RKVQQK) — lower, 142 Ru

Same assay, conditions: SPR; peptides tested at 10 μM; 5mer Bottom sequence

Point of comparison: 5mer-1167 (KESWK), Binding affinity 12 Ru. Against it:
- 5mer-1128 (REWVR) — higher, 26 Ru
- 5mer-1129 (KFDAR) — higher, 14 Ru
- 5mer-1130 (RFMVR) — higher, 17 Ru
- 5mer-1131 (KCDGK) — higher, 14 Ru
- 5mer-1132 (KFSMK) — higher, 19 Ru
- 5mer-1133 (KCSMK) — higher, 23 Ru
- 5mer-1134 (RTCKR) — higher, 26 Ru
- 5mer-1135 (RHTAR) — higher, 17 Ru
- 5mer-1136 (KNSAR) — higher, 25 Ru
- 5mer-1137 (KEEEK) — higher, 22 Ru
- 5mer-1138 (RENHK) — higher, 24 Ru
- 5mer-1139 (KHCWK) — higher, 28 Ru
- 5mer-1140 (RNEFK) — higher, 28 Ru
- 5mer-1141 (REEVR) — higher, 26 Ru
- 5mer-1142 (KTENK) — higher, 24 Ru
- 5mer-1143 (RATGK) — higher, 19 Ru
- 5mer-1144 (KAKNR) — higher, 33 Ru
- 5mer-1145 (RMPAK) — higher, 25 Ru
- 5mer-1146 (KPHGR) — higher, 23 Ru
- 5mer-1147 (RDTGK) — higher, 16 Ru
- 5mer-1148 (RDWFR) — higher, 24 Ru
- 5mer-1149 (KETDR) — higher, 25 Ru
- 5mer-1150 (KFTNR) — the same, 12 Ru
- 5mer-1151 (KTNAR) — higher, 26 Ru
- 5mer-1152 (KENFK) — higher, 18 Ru
- 5mer-1153 (RDAPR) — higher, 27 Ru
- 5mer-1154 (KCWVR) — the same, 12 Ru
- 5mer-1155 (RYDMK) — higher, 25 Ru
- 5mer-1156 (KKMNK) — higher, 13 Ru
- 5mer-1157 (KTSHR) — higher, 21 Ru
- 5mer-1158 (KYNPR) — higher, 23 Ru
- 5mer-1159 (KKWKK) — higher, 17 Ru
- 5mer-1160 (KETWR) — higher, 14 Ru
- 5mer-1161 (KCHDR) — higher, 21 Ru
- 5mer-1162 (KIKKK) — higher, 15 Ru
- 5mer-1163 (KKSKR) — the same, 12 Ru
- 5mer-1164 (RFPWR) — higher, 33 Ru
- 5mer-1165 (RNMNR) — higher, 21 Ru
- 5mer-1166 (KTHEK) — higher, 32 Ru
- 5mer-1168 (RHHWR) — higher, 31 Ru
- 5mer-1169 (KDTPK) — higher, 29 Ru
- 5mer-1170 (KHSEK) — higher, 28 Ru
- 5mer-1171 (RCSWK) — higher, 21 Ru
- 5mer-1172 (KIWWR) — higher, 25 Ru
- 5mer-1173 (KECKR) — higher, 30 Ru
- 5mer-1174 (KYSGK) — higher, 25 Ru
- 5mer-1175 (RDMIR) — higher, 30 Ru
- 5mer-1176 (KIHFK) — higher, 25 Ru
- 5mer-1177 (KIPVR) — higher, 20 Ru
- 5mer-1178 (RFDNR) — higher, 22 Ru
- 5mer-1179 (RMNVR) — higher, 18 Ru
- 5mer-1180 (KETAK) — higher, 27 Ru
- 5mer-1181 (KKAKR) — higher, 22 Ru
- 5mer-1182 (REKWK) — higher, 15 Ru
- 5mer-1183 (RHAPK) — higher, 13 Ru
- 5mer-1184 (RDSMK) — higher, 14 Ru
- 5mer-1185 (KPTGR) — higher, 30 Ru
- 5mer-1186 (KMWVK) — the same, 12 Ru
- 5mer-1187 (KHHIR) — higher, 27 Ru
- 5mer-1188 (KPSGK) — higher, 30 Ru
- 5mer-1189 (RKMDK) — lower, 11 Ru
- 5mer-1190 (RFSEK) — higher, 32 Ru
- 5mer-1191 (RMDWK) — higher, 30 Ru
- 5mer-1192 (RYAKK) — higher, 28 Ru
- 5mer-1193 (KHWFK) — higher, 22 Ru
- 5mer-1194 (RDNGK) — higher, 18 Ru
- 5mer-1195 (RHWEK) — higher, 19 Ru
- 5mer-1196 (RICIR) — higher, 24 Ru
- 5mer-1197 (KDDAR) — higher, 24 Ru
- 5mer-1198 (RAADK) — higher, 25 Ru
- 5mer-1199 (KNNNR) — higher, 29 Ru
- 5mer-1200 (RKNEK) — higher, 16 Ru
